Results as given in publication PMC8390433.

Biological target: Arc (Activity-regulated cytoskeleton-associated protein, Arg3.1) (UniProt Q9WV31)
Experiment: dynamic light scattering, 20°C and 30°C
Conditions: reference: wild type Arc; sites T278

Substance: Arc (Activity-regulated cytoskeleton-associated protein, Arg3.1) (from UniProt Q9WV31) T278D
- other: DLS large-species diameter (share) at 30°C: stronger; reference 333.00± 68.4 (74%)
